The values below come from patent US20240301068A1 (BEIJING HANMI PHARMACEUTICAL, published 2024).

By IC50 is commonly meant the concentration that gives 50% inhibition. Usually koff stands for a measure of how fast the partners let go of each other.

In test [1] the target is T1, recombinant human PD-L1 (Sino Biological Inc.) (human, UniProt Q9NZQ7 19-239). Put plainly: PD-L1/CD80 blocking assay, competitor CD80, format not described.
In test [2] the target is recombinant human PD1 (Sino Biological Inc.) (human, UniProt Q15116 25-167). Put plainly: ELISA, plate coated with 1 ug/mL recombinant human PD1, anti-human IgG-HRP, OD450; antibody concentration not shown. As to the method: (§1) The plate was washed 5 times with PBST, and then blocked using PBST with 1% BSA, 300 μL/well, and incubated at 25° C. for 1 hour, and then washed 5 times with PBST. […] The horseradish peroxidase-labeled anti-human IgG antibody (Chemicon, catalog number AP309P) diluted 1:10000 in PBST with 1% BSA was then added, 100 μL per well, and incubated at 25° C. for 1 hour. The plate was washed 5 times with PBST. The colorimetric substrate TMB was added, 100 μL/well, and developed at room temperature for 10 minutes. 1M H₂SO₄ was added, 100 μL/well, to stop the development. The absorbance at 450 nm was read on a microplate reader.
Sequence of recombinant human PD1 (Sino Biological Inc.) (Q15116 25-167 limits assumed): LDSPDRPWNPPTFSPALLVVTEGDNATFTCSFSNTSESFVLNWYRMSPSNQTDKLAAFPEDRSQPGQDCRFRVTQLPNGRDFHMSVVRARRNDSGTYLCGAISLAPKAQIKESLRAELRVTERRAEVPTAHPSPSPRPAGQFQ
(In general: ELISA stands for enzyme-linked immunosorbent assay.)

Test [3] deals with T2, recombinant human CD80 (Sino Biological Inc.) (human, UniProt P33681 35-242).
T2 sequence (looked up): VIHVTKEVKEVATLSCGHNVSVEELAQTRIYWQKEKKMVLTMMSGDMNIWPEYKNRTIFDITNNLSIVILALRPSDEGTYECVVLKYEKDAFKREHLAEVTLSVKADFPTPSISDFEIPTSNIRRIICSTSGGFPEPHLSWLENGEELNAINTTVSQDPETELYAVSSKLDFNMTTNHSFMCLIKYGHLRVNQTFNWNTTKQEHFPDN
The test is described as follows: ELISA, plate coated with 1 ug/mL recombinant human CD80 (printed B7-1), anti-human IgG-HRP, OD450; antibody concentration not shown. As to the method: as §1

The target in test [4] is T3, recombinant human PD-L1-Fc protein (human, UniProt Q9NZQ7 19-238, limits assumed).
T3 construct: Prepared by Beijing Hanmi Pharmaceutical; The GenBank number is NP_001254635.1
T3 sequence (Q9NZQ7 19-238 limits assumed): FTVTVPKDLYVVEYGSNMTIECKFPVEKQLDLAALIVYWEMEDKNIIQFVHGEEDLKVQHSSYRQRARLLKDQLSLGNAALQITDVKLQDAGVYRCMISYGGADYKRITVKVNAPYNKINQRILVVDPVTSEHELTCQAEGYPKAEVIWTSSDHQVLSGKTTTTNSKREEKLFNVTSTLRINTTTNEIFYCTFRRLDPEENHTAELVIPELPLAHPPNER
The test is described as follows: competition ELISA: PD-L1-Fc coated, competitor biotin-labelled PD-1-Fc. As to the method: (§2) A 96-well high-adsorption ELISA plate was coated with 1 μg/mL of the recombinant human PD-L1-Fc at 100 μL per well using carbonate buffer solution, pH=9.6 at 4° C. overnight. The plate was washed 5 times with PBST, and then blocked using PBST with 1% BSA, 300 μL/well, and incubated at 25° C. for 1 hour, and then washed 5 times with PBST. […] The Streptavidin-HRP (BD Pharmingen, catalog number 554066) diluted 1:1000 in PBST with 1% BSA was then added, 100 μL per well, and incubated at 25° C. for 1 hour. The plate was washed 5 times with PBST. The colorimetric substrate TMB was added, 100 μL/well, and developed at room temperature for 10 minutes. 1M H₂SO₄ was added, 100 μL/well, to stop the development. The absorbance at 450 nm was read on a microplate reader.

For test [5], the target named is T4, recombinant human CD86 (Sino Biological Inc.) (human, UniProt P42081 24-247, limits assumed).
T4 sequence (looked up): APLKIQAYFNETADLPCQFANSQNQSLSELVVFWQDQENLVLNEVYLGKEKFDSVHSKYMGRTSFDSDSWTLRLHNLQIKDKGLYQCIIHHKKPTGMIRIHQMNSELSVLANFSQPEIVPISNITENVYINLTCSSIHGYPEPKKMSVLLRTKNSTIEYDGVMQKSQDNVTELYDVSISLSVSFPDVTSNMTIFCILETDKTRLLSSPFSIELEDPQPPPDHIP
The test is described as follows: ELISA, plate coated with 1 ug/mL recombinant human CD86 (printed B7-2), anti-human IgG-HRP, OD450; antibody concentration not shown. As for the experimental part: as §1

Test [6] addresses T1, recombinant human PD-L1 (Sino …). The test is described as follows: affinity determination (dissociation constant), method not stated.
Test [7] has as its target T3, recombinant human PD-L1-Fc protein. Put plainly: blocking ELISA, plate coated with 1 ug/mL human PD-L1-Fc; blocked ligand biotin-labelled PD-1-Fc at 20 nM final, streptavidin-HRP, OD450. As to the method: as §2
Test [8] deals with T5, recombinant human ICOS (Sino Biological Inc.) (human, UniProt Q9Y6W8 21-141).
T5 sequence (looked up): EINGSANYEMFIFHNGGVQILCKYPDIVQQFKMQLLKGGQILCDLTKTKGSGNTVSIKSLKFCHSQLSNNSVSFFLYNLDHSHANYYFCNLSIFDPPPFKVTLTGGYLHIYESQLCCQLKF
The test is described as follows: ELISA, plate coated with 1 ug/mL recombinant human ICOS, anti-human IgG-HRP, OD450; antibody concentration not shown. As to the method: as §1

For test [9], the target named is recombinant rat PD-L1 (Sino Biological Inc.) (rat, UniProt D4AE25 19-239). Put plainly: ELISA, plate coated with 1 ug/mL recombinant rat PD-L1, anti-human IgG-HRP, OD450. As for the experimental part: (§3) A 96-well high-adsorption ELISA plate was coated with 1 μg/mL of the recombinant human PD-L1, cynomolgus PD-L1, rat PD-L1 and mouse PD-L1 (all purchased from Sino Biological Inc.), at 100 μL per well using carbonate buffer solution, pH=9.6 at 4° C. overnight. The plate was washed 5 times with PBST, and then blocked using PBST with 1% BSA, 300 μL/well, and incubated at 25° C. for 1 hour, and then washed 5 times with PBST. The chimeric anti-human PD-L1 antibody samples serially diluted in PBST with 1% BSA were added, 100 μL/well, incubated at 25° C. for 1 hour, and then washed 5 times with PBST. The horseradish peroxidase-labeled anti-human IgG antibody (Chemicon, catalog number AP309P) diluted 1:10000 in PBST with 1% BSA was then added, 100 μL per well, and incubated at 25° C. for 1 hour. The plate was washed 5 times with PBST. The colorimetric substrate TMB was added, 100 μL/well, and developed at room temperature for 10 minutes. 1M H₂SO₄ was added, 100 μL/well, to stop the development. The absorbance at 450 nm was read on a microplate reader.
Sequence of recombinant rat PD-L1 (Sino Biological Inc.) (D4AE25 entry or part of it limits assumed): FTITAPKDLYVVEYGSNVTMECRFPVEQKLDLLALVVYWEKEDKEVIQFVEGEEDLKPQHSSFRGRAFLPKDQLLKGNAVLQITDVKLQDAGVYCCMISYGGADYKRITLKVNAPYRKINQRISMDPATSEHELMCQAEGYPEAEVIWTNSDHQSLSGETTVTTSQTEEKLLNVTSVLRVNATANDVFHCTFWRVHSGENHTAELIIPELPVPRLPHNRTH

For test [10], the target named is recombinant mouse PD-L1 (Sino Biological Inc.) (mouse, UniProt Q9EP73 19-238). The test is described as follows: ELISA, plate coated with 1 ug/mL recombinant mouse PD-L1, anti-human IgG-HRP, OD450. As to the method:
as §3

T1 sequence (Q9NZQ7 19-239 limits assumed): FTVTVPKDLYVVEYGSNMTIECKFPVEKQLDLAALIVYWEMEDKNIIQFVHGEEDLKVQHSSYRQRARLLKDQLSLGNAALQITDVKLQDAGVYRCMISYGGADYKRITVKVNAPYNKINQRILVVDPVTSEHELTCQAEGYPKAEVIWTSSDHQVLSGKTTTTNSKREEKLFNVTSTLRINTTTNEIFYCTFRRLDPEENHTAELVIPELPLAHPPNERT
Sequence of recombinant mouse PD-L1 (Sino Biological Inc.) (Q9EP73 19-238 limits assumed): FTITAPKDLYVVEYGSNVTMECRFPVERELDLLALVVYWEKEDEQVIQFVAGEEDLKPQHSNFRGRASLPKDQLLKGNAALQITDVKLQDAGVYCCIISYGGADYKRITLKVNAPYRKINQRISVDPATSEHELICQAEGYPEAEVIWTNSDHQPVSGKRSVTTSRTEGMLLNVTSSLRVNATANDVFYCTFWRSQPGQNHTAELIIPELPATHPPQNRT

B1: chimeric anti-human PD-L1 monoclonal antibody (antibody, human IgG1, kappa, V domains shown)
VH: EVQLQQSGAELVKPGASVKLSCTASGFNIEDTYIHWVMQRPEQGLEWIGRIDPANGNTKYDPKFQGKATITADTSSNTAYLQLSSLTSEDTAVYYCGRGLGAWFAYWGQGTLVTVSA
VL: DIVMTQSHKVMSTSVGDRVTITCKASQDVHTAVAWIHQKPGQSPKLLIYSASNRYTGVPDRFTGSGSGTDFTFTISSVQAEDLAVYYCQQHYITPLTFGAGTTLELKR
notes: expressed in ExpiCHO cells; also called Chimeric mAb; Chimeric antibody
For B1, the IC50 in test [1] was 0.762 nM; in test [4] it was 0.596 nM; in test [7] it was 1.08 nM. In addition, the binding result in test [2] is listed as “no binding”; in [3] it was “no binding”; in test [5], “no binding”; in [8] it was “no binding”; in test [9] it was “no binding (tested: about 20 nM (last point on the log axis))”; in [10], “no binding (tested: about 20 nM (last point on the log axis))”. The koff in [6] worked out at 0.000531 s⁻¹.
